These results are taken from patent US20240117038A1 (Ablynx, published 2024).

In test [1] the target is T1, human CX3CR1 (human, UniProt P49238 1-355).
T1 sequence: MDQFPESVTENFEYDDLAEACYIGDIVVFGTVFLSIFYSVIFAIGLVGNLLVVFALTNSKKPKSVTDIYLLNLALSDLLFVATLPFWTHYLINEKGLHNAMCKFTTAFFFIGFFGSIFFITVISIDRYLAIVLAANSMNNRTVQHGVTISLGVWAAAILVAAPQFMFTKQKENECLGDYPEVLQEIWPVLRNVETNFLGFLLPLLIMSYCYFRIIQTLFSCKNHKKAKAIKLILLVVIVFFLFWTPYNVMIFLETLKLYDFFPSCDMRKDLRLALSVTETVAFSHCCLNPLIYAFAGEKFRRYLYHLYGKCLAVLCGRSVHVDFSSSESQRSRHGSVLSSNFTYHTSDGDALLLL
Put plainly: cell-based or functional assay.

Test [2] has as its target T1, human CX3CR1. Put plainly: cell-based or functional assay. The source holds these as a separate data set.
Test [3] addresses T1, human CX3CR1. Put plainly: MSD-SET in-solution affinity on cell expressed human CX3CR1, 30 uM HSA, geometric mean of N = 3. As to the method:
The affinity was determined on 3 independent assay occasions.

For another test, the target named is T2, DSC1.
T2 construct: Tested in the validation titration of the membrane protein array
T2 chain: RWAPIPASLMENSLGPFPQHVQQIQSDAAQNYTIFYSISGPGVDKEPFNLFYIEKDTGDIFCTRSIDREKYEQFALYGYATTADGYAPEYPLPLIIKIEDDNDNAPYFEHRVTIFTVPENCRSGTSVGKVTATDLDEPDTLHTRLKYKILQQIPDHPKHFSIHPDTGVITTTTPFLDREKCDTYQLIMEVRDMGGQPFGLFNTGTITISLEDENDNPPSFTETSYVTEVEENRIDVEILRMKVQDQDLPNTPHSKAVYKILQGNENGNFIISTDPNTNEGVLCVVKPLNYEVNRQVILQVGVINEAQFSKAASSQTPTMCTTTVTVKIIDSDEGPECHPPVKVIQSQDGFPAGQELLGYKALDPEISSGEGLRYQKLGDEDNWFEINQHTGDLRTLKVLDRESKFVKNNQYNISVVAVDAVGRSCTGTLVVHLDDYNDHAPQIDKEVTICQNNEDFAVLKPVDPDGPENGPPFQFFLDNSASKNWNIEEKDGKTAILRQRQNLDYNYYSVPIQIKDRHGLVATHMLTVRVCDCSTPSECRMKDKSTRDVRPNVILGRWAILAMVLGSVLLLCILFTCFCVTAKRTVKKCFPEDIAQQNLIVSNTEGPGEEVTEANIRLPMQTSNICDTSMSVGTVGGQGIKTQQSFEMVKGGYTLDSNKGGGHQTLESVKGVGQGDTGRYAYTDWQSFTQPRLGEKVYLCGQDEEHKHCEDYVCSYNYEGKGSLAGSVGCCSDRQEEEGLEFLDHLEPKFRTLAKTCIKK
Put plainly: membrane protein array validation: flow cytometry on unfixed cells expressing the protein, serial dilutions in buffer with 10% human serum albumin, fluorescently labeled secondary antibody that binds ISVDs. A general note: A flow cytometer gives signals particle by particle.

For another test, the target named is T3, FCGR2B (human, UniProt P31994).
T3 construct: overexpressed on live cells from an expression plasmid; Tested in the validation titration of the membrane protein array
T3 sequence (membrane protein, looked up): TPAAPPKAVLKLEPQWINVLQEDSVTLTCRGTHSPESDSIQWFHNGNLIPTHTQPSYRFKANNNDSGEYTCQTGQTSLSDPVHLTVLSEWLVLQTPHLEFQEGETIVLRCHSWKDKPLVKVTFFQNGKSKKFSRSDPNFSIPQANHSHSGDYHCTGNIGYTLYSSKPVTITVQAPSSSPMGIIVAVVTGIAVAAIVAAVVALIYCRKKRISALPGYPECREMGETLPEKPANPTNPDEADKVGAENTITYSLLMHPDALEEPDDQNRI
The test is described as above.

B1: A041600035 (VHH)
chain: DVQLVESGGGSVQPGGSLRLSCAASGSIFSSTAMAWYRQAPGKQRDLVAVISTVGITKYADSVKGRFTISRDNAKNTVYLQMNSLRPEDTALYYCTSDARRGWDTRYWGQGTLVTVSSGGGGSGGGSEVQLVESGGGSVQPGGSLRLSCAASGSIFSSTAMAWYRQAPGKQRDLVAVISTVGITKYADSVKGRFTISRDNAKNTVYLQMNSLRPEDTALYYCTSDARRGWDTRYWGQGTLVTVSSGGGGSGGGSEVQLVESGGGVVQPGGSLRLSCAASGFTFRSFGMSWVRQAPGKGPEWVSSISGSGSDTLYADSVKGRFTISRDNSKNTLYLQMNSLRPEDTALYYCTIGGSLSRSSQGTLVTVSSA
notes: Trivalent ISVD construct (two anti-CX3CR1 ISVDs, one anti-albumin ISVD), C-terminal alanine included in the entry; also called 54A12_SO (E1D)-9GS-54A12_SO-9GS-ALB23002-A
As usually defined, the Kd is the constant that tells how readily two partners part at equilibrium. Low values mean higher affinity, high ones lower affinity. Take B1: in the test with human CX3CR1 [1], the “arbitrary migration index (GM), classical monocytes of healthy donors, 625 pM” value is 1.15 fold change to media control; the “arbitrary migration index (GM), classical monocytes of healthy donors, 2500 pM” value was 1.09 fold change to media control; the “arbitrary migration index (GM), classical monocytes of healthy donors, 10000 pM” value is 1.05 fold change to media control; the “arbitrary migration index (GM), classical monocytes of healthy donors, 40000 pM” value was 1.27 fold change to media control. In the test with human CX3CR1 [1], the “arbitrary migration index (GM), intermediate monocytes of healthy donors, 625 pM” value was 1.26 fold change to media control; the “arbitrary migration index (GM), intermediate monocytes of healthy donors, 2500 pM” value was 1.14 fold change to media control; the “arbitrary migration index (GM), intermediate monocytes of healthy donors, 10000 pM” value was 1.04 fold change to media control; the “arbitrary migration index (GM), intermediate monocytes of healthy donors, 40000 pM” value is 1.13 fold change to media control. Also, in the test with human CX3CR1 [1], the “arbitrary migration index (GM), non-classical monocytes of healthy donors, 625 pM” value is 1.05 fold change to media control; the “arbitrary migration index (GM), non-classical monocytes of healthy donors, 2500 pM” value was 1.08 fold change to media control; the “arbitrary migration index (GM), non-classical monocytes of healthy donors, 10000 pM” value is 0.82 fold change to media control; the “arbitrary migration index (GM), non-classical monocytes of healthy donors, 40000 pM” value is 0.91 fold change to media control. Also, in the test with human CX3CR1 [2], the “fold inhibition of monocyte migration (A041600035 VS IRR VHH), healthy, CD16+ monocytes” value amounted to 2.34 fold; the “fold inhibition of monocyte migration (A041600035 VS IRR VHH), healthy, CD16- monocytes” value came out at 1.5 fold; the “fold inhibition of monocyte migration (A041600035 VS IRR VHH), healthy, total monocytes” value was 1.82 fold; the “fold inhibition of monocyte migration (A041600035 VS IRR VHH), lupus nephritis, CD16+ monocytes” value is 1.9 fold. Besides, in the test with human CX3CR1 [2], the “fold inhibition of monocyte migration (A041600035 VS IRR VHH), lupus nephritis, CD16- monocytes” value amounted to 1.71 fold and the “fold inhibition of monocyte migration (A041600035 VS IRR VHH), lupus nephritis, total monocytes” value was found to be 1.71 fold. This molecule returned a Kd with human CX3CR1 [3] of 0.13 nM. The binding result with DSC1 was “no binding (tested: 20 ug/ml)”. The binding result in the test with FCGR2B is “no binding (tested: 20 ug/ml)”.
